# Laboratory results taken from article PMC2602789.
# Molecular target: wild-type Tn3 resolvase (bacterial transposon Tn3) (UniProt P0ADI2)
# Experiment: SEC
substance,measurement,value
wild-type Tn3 resolvase (from UniProt P0ADI2 1-185) (enzyme),stoichiometry N,2
